The values below come from patent US20100298227A1 (published 2010).

A value given as a limit tells only on which side of the number the result lay.

Test [1] has as its target Detergent-soluble HLA-DR2 purified from MGAR cells (DRB1*1501) (human).
For test [2], the target named is Detergent-soluble HLA-DR1 purified from LG-2 cells (DRB1*0101) (human).
Test [3] deals with Detergent-soluble HLA-DR4 purified from Priess cells (DRB1*0401) (human).
Test [4] addresses Detergent-soluble HLA-DR2 purified from MGAR cells (DRB1*1501) (human). Briefly: competition with biotinylated TAL for purified HLA-DR; competitor TAL.
Test [5] addresses Detergent-soluble HLA-DR4 purified from Priess cells (DRB1*0401) (human). Described as above.
Test [6] concerns the target Detergent-soluble HLA-DR1 purified from LG-2 cells (DRB1*0101) (human). The test is described as above.

For Copolymer 1, the IC50 in test [1] amounted to 10.1 µM; in test [2], 8.8 µM; in test [3], 10.8 µM. For the same molecule, the Kd in test [1] amounted to 0.082 µM; in test [2], 0.074 µM; in test [3], 0.015 µM.

As to “GTL terpolymer (SD-1697), poly[L-Tyr 0.162, L-Glu 0.259, L-Lys 0.579]”, the IC50 came to 25.4 µM in test [1], 43 µM in test [2] and 43 µM in test [3]. Moreover, the Kd in test [2] was found to be 0.004 µM; in test [3], 0.008 µM.

“TAL terpolymer (SD-1691), poly[L-Tyr 0.102, L-Ala 0.542, L-Lys 0.353]”: in test [1], the IC50 came to 2.7 µM and the Kd turned out to be 0.017 µM. Also, the IC50 in test [2] amounted to 3.3 µM.

Consider “TGA terpolymer (SD-1690), poly[L-Tyr 0.136, L-Glu 0.21, L-Ala 0.648]”, for which the IC50 in test [1] amounted to 9.5 µM; in test [2] it was 1.3 µM; in test [3] it was 1 µM. In addition, the results for the Kd in test [1], in test [2] and in test [3] were 0.008 µM, 0.01 µM and 0.008 µM, respectively.

With “GAL terpolymer (SD-1689), poly[L-Glu 0.153, L-Ala 0.479, L-Lys 0.365]”, the IC50 in test [1], in test [2] and in test [3] was below 1000 µM in each case. The Kd in test [1] was 0.017 µM; in test [3], 0.003 µM.

B1: bacterial superantigen TSST-1 (other)
chain: STNDNIKDLLDWYSSGSDTFTNSEVLDNSLGSMRIKNTDGSISLIIFPSPYYSPAFTKGEKVDLNTKRTKKSQHTSEGTYIHFQISGVTNTEKLPTPIELPLKVKVHGKDSPLKYGPKFDKKQLAISTLDFEIRHQLTQIHGLYRSSDKTGGYWKITMNDGSTYQSDLSKKFEYNTEKPPINIDEIKTIEAEIN
Take B1: the “fold amount of superantigen needed to inhibit TAL binding” value (“fold amount … to inhibit TAL binding” for short) in test [4], in test [5] and in test [6] was 50 fold each time.

B2: bacterial superantigen SEA (other)
chain: SEKSEEINEKDLRKKSELQGTALGNLKQIYYYNEKAKTENKESHDQFLQHTILFKGFFTDHSWYNDLLVDFDSKDIVDKYKGKKVDLYGAYYGYQCAGGTPNKTACMYGGVTLHDNNRLTEEKKVPINLWLDGKQNTVPLETVKTNKKNVTVQELDLQARRYLQEKYNLYNSDVFDGKVQRGLIVFHTSTEPSVNYDLFGAQGQYSNTLLRIYRDNKTINSENMHIDIYLYTS
On to B2, for which the “fold amount … to inhibit TAL binding” value in test [4], in test [5] and in test [6] was 50 fold each time.

B3: bacterial superantigen SEB (other)
chain: ESQPDPKPDELHKSSKFTGLMENMKVLYDDNHVSAINVKSIDQFLYFDLIYSIKDTKLGNYDNVRVEFKNKDLADKYKDKYVDVFGANYYYQCYFSKKTNDINSHQTDKRKTCMYGGVTEHNGNQLDKYRSITVRVFEDGKNLLSFDVQTNKKKVTAQELDYLTRHYLVKNKKLYEFNNSPYETGYIKFIENENSFWYDMMPAPGDKFDQSKYLMMYNDNKMVDSKDVKIEVYLTTKKK
On to B3, for which the “fold amount … to inhibit TAL binding” value in test [4], in test [5] and in test [6] was 50 fold each time.
